Results: patent US7022489 (dated 2006)

T1: rat GALR3 (rat)
T1 chain: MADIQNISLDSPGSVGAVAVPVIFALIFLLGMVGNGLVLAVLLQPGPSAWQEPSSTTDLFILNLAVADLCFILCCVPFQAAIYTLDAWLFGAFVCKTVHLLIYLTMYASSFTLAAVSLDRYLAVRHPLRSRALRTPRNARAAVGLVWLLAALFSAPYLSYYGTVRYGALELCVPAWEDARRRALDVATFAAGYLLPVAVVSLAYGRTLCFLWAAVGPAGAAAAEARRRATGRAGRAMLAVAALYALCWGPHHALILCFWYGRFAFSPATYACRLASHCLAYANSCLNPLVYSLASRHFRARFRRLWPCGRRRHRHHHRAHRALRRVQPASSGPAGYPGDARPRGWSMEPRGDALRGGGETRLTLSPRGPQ

T2: human GALR3 (human)
T2 chain: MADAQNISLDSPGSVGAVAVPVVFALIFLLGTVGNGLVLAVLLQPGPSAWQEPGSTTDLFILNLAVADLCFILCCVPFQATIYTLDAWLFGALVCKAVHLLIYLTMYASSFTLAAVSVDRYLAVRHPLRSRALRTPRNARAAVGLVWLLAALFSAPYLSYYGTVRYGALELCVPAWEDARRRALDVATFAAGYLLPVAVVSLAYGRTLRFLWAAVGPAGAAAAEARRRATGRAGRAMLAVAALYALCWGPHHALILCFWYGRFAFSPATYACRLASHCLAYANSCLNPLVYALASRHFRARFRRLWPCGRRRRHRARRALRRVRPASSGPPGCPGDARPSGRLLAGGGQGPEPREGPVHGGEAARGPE


What was measured:
[1] = target: T1, rat GALR3; experiment: competition
[2] = target: T1, rat GALR3; experiment: competition
[3] = target: T2, human GALR3; experiment: competition
[4] = target: T1, rat GALR3; experiment: competition, COS-7
[5] = target: T1, rat GALR3; experiment: competition, 293-rGalR3-105
[6] = target: T1, rat GALR3; experiment: other, 125I-galanin saturation, COS-7 membranes
[7] = target: T2, human GALR3; experiment: other, 125I-galanin saturation, L-hGalR3-228 membranes

| Ki [1] [nM] | Ki [2] [nM] | Ki [3] [nM] | Ki [4] [nM] | Ki [5] [nM] | Kd [6] [nM] | Kd [7] [nM] | Binder |
| --- | --- | --- | --- | --- | --- | --- | --- |
| > 1000 | > 1000 | > 1000 | > 1000 | > 1000 | – | – | D-Trp2-galanin 1-29 (protein, D-Trp at position 2, mature numbering) KRGWTLNSAGYLLGPHAIDNHRSFHDKYGLAGKRELEPEDEARPGGFDRLQSEDKAIRTIMEFLAFLHLKEAGALGRLPGLPSAASSEDAGQS |
| – | – | – | – | – | 0.34 | 2.57 | porcine galanin (protein) KRGWTLNSAGYLLGPHAIDNHRSFHDKYGLAGKRELEPEDEARPGGFDRLQSEDKAIRTIMEFLAFLHLKEAGALGRLPGLPSAASSEDAGQS |
